Sequences and labels used below:
T1: CEGPCR4 (C. elegans)
T1 chain: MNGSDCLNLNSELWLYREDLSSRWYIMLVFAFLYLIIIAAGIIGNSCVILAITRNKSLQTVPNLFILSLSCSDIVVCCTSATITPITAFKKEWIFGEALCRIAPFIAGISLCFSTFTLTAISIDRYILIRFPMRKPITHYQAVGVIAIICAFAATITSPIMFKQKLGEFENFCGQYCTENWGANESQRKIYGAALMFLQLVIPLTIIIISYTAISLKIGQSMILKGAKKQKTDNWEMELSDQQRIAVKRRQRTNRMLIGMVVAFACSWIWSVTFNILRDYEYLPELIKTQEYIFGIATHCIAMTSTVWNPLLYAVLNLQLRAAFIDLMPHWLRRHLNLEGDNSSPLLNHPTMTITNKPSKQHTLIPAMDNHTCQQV

T2: CEGPCR4 (C. elegans)
T2 construct: Expressed in CHO cells
T2 chain: T1 chain

B1: p…-NH2 (leucomyosuppressin) (peptide)
peptide: [pGlu]DVDHVFLRF-NH2
SMILES: CC(C)C[C@H](NC(=O)[C@H](Cc1ccccc1)NC(=O)[C@@H](NC(=O)[C@H](Cc1c[nH]cn1)NC(=O)[C@H](CC(=O)O)NC(=O)[C@@H](NC(=O)[C@H](CC(=O)O)NC(=O)[C@@H]1CCC(=O)N1)C(C)C)C(C)C)C(=O)N[C@@H](CCCNC(=N)N)C(=O)N[C@@H](Cc1ccccc1)C(N)=O
B2: 3-Iodo-Y-GVLRF-NH2 (peptide)
peptide: [Tyr(3-I)]GVLRF-NH2
modifications: N-terminus assumed
SMILES: CC(C)C[C@H](NC(=O)[C@@H](NC(=O)CNC(=O)[C@@H](N)Cc1ccc(O)c(I)c1)C(C)C)C(=O)N[C@@H](CCCNC(=N)N)C(=O)N[C@@H](Cc1ccccc1)C(N)=O
notes: Synthetic
B3: VLRF-NH2 (peptide)
peptide: VLRF-NH2
notes: also called C-terminal tetrapeptide VLRF-NH2
B4: ILNleRF-NH2 (peptide)
peptide: IL[Nle]RF-NH2
modifications: N-terminus assumed
SMILES: CCCC[C@H](NC(=O)[C@H](CC(C)C)NC(=O)[C@@H](N)[C@@H](C)CC)C(=O)N[C@@H](CCCNC(=N)N)C(=O)N[C@@H](Cc1ccccc1)C(N)=O
notes: Synthetic
B5: 3-Iodo-Y-PGVLRF-NH2 (peptide)
peptide: [Tyr(3-I)]PGVLRF-NH2
modifications: N-terminus assumed
SMILES: CC(C)C[C@H](NC(=O)[C@@H](NC(=O)CNC(=O)[C@@H]1CCCN1C(=O)[C@@H](N)Cc1ccc(O)c(I)c1)C(C)C)C(=O)N[C@@H](CCCNC(=N)N)C(=O)N[C@@H](Cc1ccccc1)C(N)=O
notes: Synthetic; also called 3-Ioda-Y-PGVLRF-NH2
B6: 3-Iodo-Y-DVPGVLRF-NH2 (peptide)
peptide: [Tyr(3-I)]DVPGVLRF-NH2
modifications: also: 125I in the radiolabelled probe
notes: N-terminally iodo-Tyr-extended flp18 analog
B7: 3-Iodo-Y-VPGVLRF-NH2 (peptide)
peptide: [Tyr(3-I)]VPGVLRF-NH2
modifications: N-terminus assumed
SMILES: CC(C)C[C@H](NC(=O)[C@@H](NC(=O)CNC(=O)[C@@H]1CCCN1C(=O)[C@@H](NC(=O)[C@@H](N)Cc1ccc(O)c(I)c1)C(C)C)C(C)C)C(=O)N[C@@H](CCCNC(=N)N)C(=O)N[C@@H](Cc1ccccc1)C(N)=O
notes: Synthetic

Where “and” joins values, the source holds several entries; their conditions need not be identical. Equal values may be shown once. Where no end group is shown, it is not given here. [ ]: non-standard residue; d: D form. Tyr(3-I) = N[C@@H](Cc1ccc(O)c(I)c1)C(=O)O; pGlu = O=C1CC[C@@H](C(=O)O)N1; Nle = CCCC[C@H](N)C(=O)O

Consider 34 molecules from patent US20050176069A1 (PHARMACIA AND UPJOHN, published 2005).

The first assay deals with T1, CEGPCR4 (C. elegans). The experiment in a line: competition binding assay, CEGPCR4/CHO membranes, vs [125I-Y]DVPGVLRF-NH2.
As to GDVPGVLRF-NH2 […-NH2 (AF4)], the half-inhibitory concentration (IC50) (commonly the concentration at which inhibition is half-maximal) lay within 0.5 to 10 nM.
As for AVPGVLRF-NH2 [AVPGVLRF-NH2 (AF3)], the IC50 is 0.5 to 10 nM.
In the case of GMPGVLRF-NH2 [GMPGVLRF-NH2 (AF20)], the IC50 is 0.5 to 10 nM.
In turn, B1 came in with a 50% inhibitory concentration (IC50) of 60000 to 900000 nM.
Molecule TDVDHVFLRF-NH2 […-NH2 (dromyosuppressin)] showed a 50% inhibitory concentration (IC50) of 50000 to 500000 nM.

For another assay, the target named is T2, CEGPCR4. The assay is described as above.
For the molecule KSVPGVLRF-NH2 [KSVPGVLRF-NH2], the 50% inhibitory concentration (IC50) was in the range of 0.5 to 10 nM.
On to DVPGVLRF-NH2 [DVPGVLRF-NH2], for which the IC50 was 0.5 to 10 nM and 1 to 60 nM.
The molecule YVPGVLRF-NH2 (Synthetic) [Y-VPGVLRF-NH2] showed an IC50 of 1 to 60 nM.
As to Ac-VPGVLRF-NH2 [Ac-VPGVLRF-NH2], the IC50 lay in the range of 1 to 60 nM.
B2 returned an IC50 of 1 to 60 nM.
On to SDNFMRF-NH2 [SDNFMRF-NH2], for which the concentration for half-maximal inhibition (IC50) lay within 50000 to 500000 nM.
PDNFMRF-NH2 [PDNFMRF-NH2] registered an IC50 of 50000 to 500000 nM.
The molecule EIPGVLRF-NH2 [EIPGVLRF-NH2] came in with an IC50 of 0.5 to 10 nM.
Consider EIVFHQISPIFFRF-NH2 [EIVFHQISPIFFRF-NH2], for which the concentration for half-maximal inhibition (IC50) fell in the range of 50000 to 500000 nM.
On the same count and under the same terms, with VPGVLRF-NH2 [VPGVLRF-NH2] the figure was 1 to 60 nM.
In turn, YPGVLRF-NH2 (Synthetic) [Y-PGVLRF-NH2] returned an IC50 of 1 to 60 nM.
B3 yielded a half-inhibitory concentration (IC50) of around 400 nM.
GVLRF-NH2 [GVLRF-NH2] had a half-inhibitory concentration (IC50) of 1 to 60 nM.
For SAEPFGTMRF-NH2 [SAEPFGTMRF-NH2], the IC50 lay within 50000 to 500000 nM.
Same read-out and setting: with B4 the figure was 60000 to 900000 nM; with KPNFLRF-NH2 [KPNFLRF-NH2], 60000 to 900000 nM.
On to SPLGTMRF-NH2 [SPLGTMRF-NH2], for which the half-maximal inhibitory concentration (IC50) lay within 50000 to 500000 nM.
DFDGAMPGVLRF-NH2 [DFDGAMPGVLRF-NH2] yielded a concentration for half-maximal inhibition (IC50) of 0.5 to 10 nM.
Molecule PGVLRF-NH2 [PGVLRF-NH2] displayed an IC50 of 1 to 60 nM.
Take YGVLRF-NH2 (Synthetic) [Y-GVLRF-NH2]: the half-inhibitory concentration (IC50) is 1 to 60 nM.
ASPSFIRF-NH2 [ASPSFIRF-NH2] had an IC50 of 0.5 to 10 nM.
Molecule Ac-GVLRF-NH2 [Ac-GVLRF-NH2] registered an IC50 of 1 to 60 nM.
As to YDVPGVLRF-NH2 [Y-DVPGVLRF-NH2], the IC50 lay within 1 to 60 nM.
As to B5, the IC50 lay within 1 to 60 nM.
As to TNRNFLRF-NH2 [TNRNFLRF-NH2 (Lobster peptide II)], the IC50 fell in the range of 50000 to 500000 nM.
In turn, B6 showed an IC50 of 1 to 60 nM.
The same measure, in the same setting: the same measure for NGAPQPFVRF-NH2 [NGAPQPFVRF-NH2]: 50000 to 500000 nM; for SEVPGVLRF-NH2 [SEVPGVLRF-NH2]: 0.5 to 10 nM.
On the same count and under the same terms, the same measure for B7: 1 to 60 nM.
